Test results: publication PMC6277709, “Lipid-Modified Azurin of Neisseria gonorrhoeae Is Not Surface Exposed and Does Not Interact With the Nitrite Reductase AniA” (Frontiers in Microbiology, 2018)

Target: the molecule itself
Assay: cross-linking; in vivo: intact living N. gonorrhoeae (WT or Δlaz, grown under standard aerobic conditions) in PBS with 0, 0.1, 0.25 or 0.4 mM DSP, 37°C, 5% CO2, 30 min; quenched with 50 mM Tris-HCl pH 8.0; SDS-PAGE without reducing agent at 4°C; immunoblot with anti-BamA, anti-AniA or anti-Laz antiserum

B1: Nitrite reductase AniA of Neisseria gonorrhoeae FA1090, endogenous in living gonococci (enzyme)
chain: CGGEQAAQAPAETPAASAEAASSAAQATAETPAGELPVIDAVTTHAPEVPPAIDRDYPAKVRVKMETVEKTMKMDDGVEYRYWTFDGDVPGRMIRVREGDTVEVEFSNNPSSTVPHNVDFHAATGQGGGAAATFTAPGRTSTFSFKALQPGLYIYHCAVAPVGMHIANGMYGLILVEPKEGLPKVDKEFYIVQGDFYTKGKKGAQGLQPFDMDKAVAEQPEYVVFNGHVGSIAGDNALKAKAGETVRMYVGNGGPNLVSSFHVIGEIFDKVYVEGGKLINENVQSTIVPAGGSAIVEFKVDIPGSYTLVDHSIFRAFNKGALGQLKVEGAENPEIMTQKLSDTAYAGSGAASAPAASAPAASAPAASASEKSVY
notes: source: endogenous, living N. gonorrhoeae FA1090 (WT and Δlaz) cells
In the case of B1, the “stoichiometry N” value is reported as 3.
